# Test results from publication PMC8133395 (Cell reports, 2021).
# Target: T1, EBOV sGP (Mayinga) (Zaire ebolavirus, Mayinga, GenBank …, UniProt P60170)
# T1 construct: source: FreeStyle-293-F, transiently transfected, purified (Strep-Tactin, SEC)
# Test: ELISA
# Settings: both partners purified
# T1 sequence (P60170 33-314): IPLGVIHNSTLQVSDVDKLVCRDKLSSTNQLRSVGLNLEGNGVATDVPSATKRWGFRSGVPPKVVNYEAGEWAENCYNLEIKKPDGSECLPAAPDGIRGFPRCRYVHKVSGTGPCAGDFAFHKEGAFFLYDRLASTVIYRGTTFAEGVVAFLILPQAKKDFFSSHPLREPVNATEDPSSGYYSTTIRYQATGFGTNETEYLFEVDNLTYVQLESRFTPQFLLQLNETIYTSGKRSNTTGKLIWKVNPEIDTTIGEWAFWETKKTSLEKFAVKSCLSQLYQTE
row,Binder,binding result
1,"BDBV-289 (recombinant IgG1) (antibody, V domains shown, IgG1; source: FreeStyle-293-F, transiently transfected, purified (mAb Select, SEC)) VH: QVQLVQSGAEVKKPGSSVKVSCKASGATFGSDTVTWVRQAPGQGLEWMGGIIPFFGEANYAQRFQGRVTITADKSTNTAYMELSSLRSEDTAVYFCARQINEMATFGEIHYYTYMDVWGQGTLVTVSS VL: GSELTQDPAVSVALGQTVRITCQGDSLRNYYASWYQQKPRQAPVLVFYGKNNRPSGIPDRFSGSSSGNTASLTISGAQAEDEADYYCNSRDSSSNHLVFGGGTKLTVL",binds
2,"BDBV-329 (recombinant IgG1) (antibody, V domains shown, IgG1; also called BDB-329; source: ExpiCHO, transiently transfected, purified (HiTrap MabSelect Sure)) VH: QVQLVQSGAEVKKPGSSVKVSCKASGGTFDTYAISWVRQAPGQGLEWMGGIIPVLGIVDYAQKFQGRVTITAAKFTNIAYMELSSLRSEDAAVYYCARGLRSLSPRGQEGPTPAPGWRRAQYHYYYMDVWGTGTLVTVSS VL: EIVMTQSPGTLSLSPGERATLSCRASQSVSSNYLAWYQQKPGQAPRLLIYGASSRATGIPDRFSGSGSGPDFTLTISRLEPEDFAVYYCQQYGSSPGTFGGGTKVEIK",binds
3,"EBOV-437 (recombinant IgG1) (antibody, V domains shown, IgG1; source: ExpiCHO, transiently transfected, purified (HiTrap MabSelect Sure)) VH: QVQLVQSGAEVKKPGSSVKVSCKASGGTFSRDIFSWVRQAPGQGLEWMGGIIPIFGTANYAQKFQGRVTITADKSTSTVFMELSGLRSEDTAVYFCARGPPLRGERSWFGESEKYDYFYMDVWGKGTTVTVSS VL: QIVLTQSPGTLSLSPGERATLSCRASQSVSNSYLAWYQQKPGQAPRLLIYGASSRATGIPDRFSGSGSGTDFTLSISRLEPEDFAVYYCQQYGTSPCTFGQGTKLEIK",binds
4,"EBOV-237 (recombinant IgG1) (antibody, V domains shown, IgG1; source: ExpiCHO, transiently transfected, purified (HiTrap MabSelect Sure)) VH: QVQLQESGPGLVKPSGTLSLTCAVSGGSISNGIWWSWVRQPPGKGLEWIGEIYHSGSTNYSPSLKSRVTISLDKSKNQFSLKLNSVTAADTAVYYCARAPSQFDFSDWLVPQGAMFRGHYIDYWGQGTLVTVSS VL: not shown",binds
5,"BDBV-43 (recombinant IgG1) (antibody, V domains shown, source: FreeStyle-293-F, transiently transfected, purified (mAb Select, SEC)) VH: QVQLVQSGAEVKKPGSSVKVSCRASGDSFSRKYGISWVRQAPGQGFEWMGTIMPIVGLTTSAQKFQGRVTITADKSTSTAHMELNSLTSEDTAIYYCARDEIIGARPHWFDSWGQGTLVTVSS VL: EIVMTQSPAIMSVSPGKRATLSCRASQSVSSNLAWYQRKPGQAPRLLIYGSSTRATGIPARFSGSGSGTEFTLTISSLQSEDFAVYYCLQYYNWPRTFGQGTKVEIK",binds
6,"EBOV-442 (recombinant IgG1) (antibody, V domains shown, IgG1; source: ExpiCHO, transiently transfected, purified (HiTrap MabSelect Sure)) VH: EVQLVESGGGLVKPGGSLRLSCTGSGGTGFTFKYAGMSWVRQAPGKGPEWIGRIKSRIDGGTTDYAAPVKDRFIVSRDDSRNTLYLQMNSLKTEDTAVYYCATGSGKGPSASFGESYYYYDFINVWGKGTTVTVSS VL: ESVLTQSPGTLSLSPGERATLSCRASQSISRKYLAWYQQKPGQAPRLLIYGSSSRATGIPDRFSGSGSGTDFTLTISRLEPEDFAVYYCHQYESSPWTFGQGTKVEIK",binds
7,"EBOV-296 (recombinant IgG1) (antibody, V domains shown, source: FreeStyle-293-F, transiently transfected, purified (mAb Select, SEC)) VH: QVQLVESGPGLVKPSQTLSLICTVSGGSISSGDFYWSWIRQPPGKGLEWIGFFYYSGITYYNPSLKSRVSISRDTSTNQFSLKLRSVTAADTAVYYCARVRGGRITLGQGDMYYYSGMDVWGQGTLVTVSS VL: not shown",binds
8,"EBOV-293 (recombinant IgG1) (antibody, V domains shown, source: FreeStyle-293-F, transiently transfected, purified (mAb Select, SEC)) VH: QVQLVQSGAEVKKPGSSVKVSCKASGGTFIDYTYNWVRQAPGQGLVWMGRVVPGLGLSSYAQQFEDRVTITAAKSTSTVYMELRGLTSEDTAMYYCARDTASFGWLPFAFWGQGTLVTVSS VL: QTVMTQSPGTLSLSPGERATLSCGVSQSISSTYFAWYQQKVGQAPRLLIYGASNRASGIPDRFSGSASGTDFTLTISRVEPEDFAVYYCQQYGSSPTFGQGTRLEIK",binds
